Assay: soluble fraction after stress (log2 fold change); higher = more stays soluble; pooled small domains, quantitative proteomics
Conditions: stress: pH 4
How it was run: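 With high-throughput quantitative proteomics, pooled custom libraries of small protein domains were measured after pH 4 stress. Each domain's soluble amount after the stress gives a fold change taken as aggregation propensity. Higher log2 values mean more of the domain stayed soluble.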

Sequence | soluble fraction (log2)
HMKRITAVISQKKGRDYYYIIVSYYLSNGKRVQRWIKTEFPINGNNKRKLEQKRIEVLQEWQDKLV | -0.486
HMKRLQEQAYDYLKELILSGKMIENEIYSETKLASEIGISRTPIRDALQRLSQDGFIDIIPSKGFRIH | -0.889
HMKRMSKKQLSAVIEKYFSSQPGVTLTLKDIFRNLHLDTHPLKMIALDILEEMSWDDVIMKVSDTSYALNT | 2.81e-05
HMKRNLESVLDHIEGIGPKRRKALYKHFGNLDAMRVAELEELESVEGMNKKAALAVYEFFRRNS | 0.411
HMKRNTKAEVLEILLNSGETPVSGERLAENLGISRNAVWKAVTALKEDGYNISAKRNSGYILNKS | 0.376
HMKRREENLRRLALSTAERVKRKGKKEILNPMSPQERRIIHLTLQNNKEVVTHSEGEDPYRRVIISPRN | 0.311
HMKRRSLQVGDIVQVRSLNVKGEVVSIGKNEVVVAVGRLQMRAGFDDLDFKERPKEEREVESV | 0.0749
HMKRSFGSVRQLRSGNYQARYTGPDTVRHTSPVTYTSKMDAEAWLVDERRKISSGTWTPPAR | 0.251
HMKRSVIVTAERAEVRQKADEGSALVFEAEKNVSLEYLEAAPGGWVKVRHLDGQSGFVRGNQI | -0.901
HMKRTKLEEATEWLRDRLSDGVKYNGEELLREGESADMARRTLRRAAQELGVIIERERGARGRWFWSLP | 0.254
HMKRTLLLEGRTIPYELTQKPVKNINIRVHADGSVRVSAGPWVSPEAVDAVLRQRSAFLLRALDQFAAQAP | -0.923
HMKRVPFAFAGDMLRWAAWLYHVEKRTQNEIAEELEVSRQTVANYLSEAMSQGLVQVQLRSDIIE | -1.39
HMKSAIGEEKAENFAFADLGMDPLSAEGVRTEFGFEQGQFVYKVYFTADGTEYEYWIKASDGSVVKKGMDL | -1.33
HMKSAIKQNILLYLSNKGVTSYEFYKISGVTRGILQQSNGISEDNIAKFLAYAPDVNIEWLLTGKGDMLKH | -0.325
HMKSATGKIPDFISDLPVDEFVRELIVTNAFQPLNKFKEVQNHIGSALKIYVDELTEKRANGTVHILYSHK | -0.324
HMKSAYADVAIAKVQDYVNVRAENNEDSEVLGKLYNNSAATVLETTDDGWYKISSGSVTGYVKSEYVVVG | -1.04
HMKSEMYIDLSNALLKMSERDKELLTYRYTMEMSSKEISQITGIKESNVNSYIRRAREKLLKIFNAMNK | 0.123
HMKSFDERQAALNELAKVIEGTGRKAEQDAEFRREQNQLMIDKIDEQLKGDLTDSQREELKKERAALARK | 0.0649
HMKSGLLNLSTRKQEKIKQALLSEFSNVSLLEAKVANIVTLAEISRGSFYTYFEDIYDAYQWLASI | 0.22
HMKSIFIRADELAAELDVSKALAYKMINQWNEELKAKGYTTVGGRVSRQYYYEKIYGAENVFDF | -1.78
HMKSILDDVVGLGPVRKKALLSAAGGFRKLRDMDVDEVIGLGAVPEEVAREVVTVLAQYNGERDRVEGL | 0.104
HMKSILSEIPGIGPKKRKSLMMQFGSVKNISEASLKDLSSTKGINSNLSKEIFNFFSVEKNN | 0.15
HMKSKNILLGEYKGKEVHVGEGKYGPFILYDKKFKSIGAYLTENSLMLKDLTIEDYSKIMKFTENSNSKS | 0.0285

Sequence | soluble fraction (log2)
HMKSKNRLTKSYLDSIPGVGRKRKSILLRYFGSIDQIKRASSEDIANVPGIGKITSDLVYNYFNQ | -0.23
HMKSLAQELVDALGDRIRDGRLKVGDKLPSEAAIEAQYGVSRTVVREAISRLQAAGLVVTRHGIGTFIVGI | ≥ 0.43
HMKSLLDQINGIGAIRKRALLNHFGSARAVESASLDEIKSVEGVEAKVAKKIYNFFHEYKNMLR | 0.0807
HMKSLLSRREQEVLELVSRGFSYSEIAELKNLSVHTIQTHIKSLYGKLEVHSKMEAVLEATRMGLLPQ | -1.12
HMKSSLAKNLETLMQERQISQTRLSKISGVSQSYIFKILNDQIKKPSLDTLEKLATALDSTVAQLNH | 0.191
HMKSSTEIIYSDFLREVSNGQISEVTIQGDFVRGLFLSGSSFQTYAPKDSNLINILRDKKVRIKVHPP | -0.11
HMKSTELSIIEALRVLGLKHGASQDSIKKSYRRLVKQHHPDLGGSADSFRKVNEAYQLLIMN | 0.0586
HMKSVILQLHPETLRWIREEAQADMADASVIQLLNDWELGTKKPTLSQVQKLSHETHIPFGYFFLKEKPA | -0.203
HMKSVQIPQSITVKEFSQAIEVSVADVIKKLMSMGVMVSQNKEINVDTAILVGEEFGVTVNVA | -0.0481
HMKSVTVIFKESGNVVSSKKLSVVATAQYVDKSRITAPAGYRIATTDSKLKISENNTVTVEVK | -0.1
HMKSYTYNPNYLSDYNAYRLGIPLEALERLQLHRSTGRYVNSLSDFQSVTGISDSLKHSLSSSLRFPN | -0.564
HMKTDLQIQQDVMAELKWEPKVNAAHIGVEVKHGVVTLSGHVDSFAEKWNAEQAAKRVAGVKFIAIELDV | -0.0349
HMKTEIKSPLPGIVLKIFVRTGEYVDKNQRLFSLEAMKMENEIKAERAGVIAGIRISEGQSVLQDEVIMEM | -0.288
HMKTFQSYQTTSMSNVNLRKRANGTSTILKRIKVGDTVTVVGKSGNYYQIQFDGKEGYALIKYIDGTDSGA | -0.107
HMKTFSTRLIALREAIGVNQSELARRVGVTPQAVQKWESGANGPRGKRLEKLASELRSTVGYLVSGEGDG | 0.0382
HMKTGAKLKNLRKMKKLSQEEVAKVLNLSYSTLSRWENDTRIPTYEDLFKLGQFYGVSVDYLSDPN | -0.853
HMKTGNIITVSLVWKGKYYMIRMFFPSASRPTRSDVQNEIEKVYPGSKLSTFSVSDYEPGQPLLQV | -0.092
HMKTGNPYAQRNTADMYNYGRGIEKDSYLAFVWYFAAYKQGNDNAKPQIDSITASGHLSPNQQLHAKIE | -0.304
HMKTIQVGSTVRVNQGAKTYSGGGLASFVYKRNHKVSQLQGDRAVITYEGTVVAAVHVSDLSLIH | -0.801
HMKTLELIAAIRKRIAGGYAGADGRLPNIGEIAKDFSVSPMTAQKAVRALVEAGVLTSTRRKGVFLKQPAS | 0.354
HMKTLGMDKGVNIALNDAGLRAEDVSNLSAHYDTEDGVPVYEIKFTAGGFSYEYQIKASDGTIIEADRDAA | -0.0393
HMKTMAVYPVGTRVLTSDGEIGVVEKQNSEAPERPVIKILKGADGHDYEKPDFKDLMKILTLFIVDTI | 0.0457
HMKTMSLSSIEKAIYKTKYENEPTSQRLSRIESSVFGTNFSQDSESERIARISSAINAQKSAK | 0.22

Sequence | soluble fraction (log2)
HMKTMTTIRKGSRGDTVATLQRKLNLIADGIFGPITDEAVRDFQKSHGLAVDGIVGPKTWAALGVGS | 0.354
HMKTNQINVSGLSKEKNFEVLESLDVYKFYNLFFLNKIKIDQLINSYNHIDNYSVFKKYPSSLIVKLSE | -0.0619
HMKTPETSEYVVQAGDSLRRILTERYGAKEQDLPYLYRQFRLLNPKVSSLDNIHAGTKVRIPLVASVL | -0.0112
HMKTPRKVFTVLIRNTEYDVYDIDGKEHQGYNDTPKTWWLYHSERLPEGMIPPIDSDSWKPYSVGT | -2.19
HMKTTKESLLEYIQREVFTDSIHKEGLSTNEIADAFQIQRSNVSSLLNTLVKEGKLEKTTGRPVLYRIPEK | 0.0777
HMKVEFDAMDKRILELMAKEYDTVLMARHLPLTPIVIDVRKKRIREVLNLPDATDAEIVIEAKEKDII | -1.47
HMKVEIVRVVKDIHIGDEITKDMVRTVEVGGYNLPDGVVKDTATVIGRFASADMVPGDYIISSKIADAP | 0.0866
HMKVELSENEKIIYDLLSNQEVLLSEIKDKAELSNKAWDKSTKSLRKLGLVIVEKKDDNIYISKS | 0.368
HMKVGEIIKAKREELKIPLVNFAKELDISQGYLSQIENGIKTNPNLDIILKIIHRLDIDLAMLL | -1.02
HMKVIAEESYRILVDAIEKLPPQMKSIMQLALEGKSNPEIAETLNISGETVHSQKKIAYRKLRVYLKD | -0.144
HMKVIETKYNTYVVKSGDTLYSVAKKYGISVTELKEINDLSNNTLSIGQKLLVPATTIIIDE | -0.525
HMKVNMIIVMKPGARETDIQEVSNVLKSAGLGVHISKGTERTIIGVIGDKRLLNGIPLDLMHGVDKLVPIM | -0.0619
HMKVNQFEVEGNQRYSTEEIAKASGVSKGDNLFLVNKTETARKLLDELAYVRSVNIKRKLPDTLVITVAE | 0.331
HMKVPDVQYMNKDSAIEALTANELKYTIVEAENENVAAGVVISQSVERDSQVAPGTSVELVVSTG | -0.741
HMKVQEMTANSFLTQWEAGNVKTLDILPEGIIKGELNDGTKFQLYYSSAAGLIDDVKKNPEKFANTTVSEK | -0.238
HMKVQEVDYGTFLTMVDEGKVNQVDIENSKQITFNTKGDKNKVYITGQVNDPELVNRLYKAGVEFSQEIP | -0.674
HMKVSNWYFNGAPSATTPPTSQWTTEKDKKAHIGDTFTSLDKSPSPNAGKSWRYTPSYTWEEIV | 0.0965
HMKVSRTAVKLHHANAVEVAKKLQPLFVVGDVQIEPVKDAGIILLKGPASTLADLRESIVQMDHTA | -0.309
HMKVTRWEDTGMKPAEAQEWQHYDFKPQEAMNWRDAGFVPLVARTWSDKGFDASEAQAWRDSVRNS | 0.123
HMKVVEKHIVPQIQNPIRLQEYASSIFKTITTRSGIKKAIKKQLILLNRKPANTGDWIKEGQLLELLAEE | -0.569
HMKVYIKDISDLSDKLKSLLIENDIDDSNKLFEVEDQVLLEIKGLGSKTIDKIKDIVTEYLKKNN | -0.38
HMKVYPIMEAIANNNIELVKLLLEYHADLNIKDSNGNTPLALAKETGAKEVEDLLLQWMKQHT | -0.834
HMKWGDTPTVEVPNLIGMKKKDLQTQLVDLKLDISGDGEKVIKQSPEAGAKVKEGSKIRIYFG | -0.0575

— the domain aggregation screens of Martell et al. (2025)
